Laboratory results published in PMC4243239 (Nature communications, 2014).

T1: B. subtilis FtsZ with a 15-residue recombinant N-terminal T7 epitope tag (B. subtilis, UniProt P17865 1-382)
T1 sequence (looked up): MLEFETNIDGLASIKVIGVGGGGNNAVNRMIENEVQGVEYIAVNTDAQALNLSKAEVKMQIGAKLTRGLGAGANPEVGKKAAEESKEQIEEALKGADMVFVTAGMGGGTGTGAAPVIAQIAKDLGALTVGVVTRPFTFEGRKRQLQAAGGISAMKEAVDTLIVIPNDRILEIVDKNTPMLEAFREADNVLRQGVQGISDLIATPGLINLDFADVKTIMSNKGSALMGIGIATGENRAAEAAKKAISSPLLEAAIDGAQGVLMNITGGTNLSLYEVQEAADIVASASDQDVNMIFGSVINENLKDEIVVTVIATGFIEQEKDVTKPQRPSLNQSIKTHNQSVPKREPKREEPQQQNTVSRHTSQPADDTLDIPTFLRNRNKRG

T2: B. subtilis FtsZ, untagged (B. subtilis, UniProt P17865 1-382)
T2 sequence: T1 sequence (looked up)

B1: B. subtilis EzrA cytoplasmic domain lacking the N-terminal 21 residue trans-membrane helix, BsEzrA_(22-562) (domain or fragment, UniProt O34894 22-562, looked up)
chain: RKKIYAEIDRLESWKIEILNRSIVEEMSKIKHLKMTGQTEEFFEKWREEWDEIVTAHMPKVEELLYDAEENADKYRFKKANQVLVHIDDLLTAAESSIEKILREISDLVTSEEKSREEIEQVRERYSKSRKNLLAYSHLYGELYDSLEKDLDEIWSGIKQFEEETEGGNYITARKVLLEQDRNLERLQSYIDDVPKLLADCKQTVPGQIAKLKDGYGEMKEKGYKLEHIQLDKELENLSNQLKRAEHVLMTELDIDEASAILQLIDENIQSVYQQLEGEVEAGQSVLSKMPELIIAYDKLKEEKEHTKAETELVKESYRLTAGELGKQQAFEKRLDEIGKLLSSVKDKLDAEHVAYSLLVEEVASIEKQIEEVKKEHAEYRENLQALRKEELQARETLSNLKKTISETARLLKTSNIPGIPSHIQEMLENAHHHIQETVNQLNELPLNMEEAGAHLKQAEDIVNRASRESEELVEQVILIEKIIQFGNRFRSQNHILSEQLKEAERRFYAFDYDDSYEIAAAAVEKAAPGAVEKIKADISA
B2: BsEzrA_(22–217), spectrin repeats one and two of B. subtilis EzrA (domain or fragment, UniProt O34894 22-217, looked up)
chain: RKKIYAEIDRLESWKIEILNRSIVEEMSKIKHLKMTGQTEEFFEKWREEWDEIVTAHMPKVEELLYDAEENADKYRFKKANQVLVHIDDLLTAAESSIEKILREISDLVTSEEKSREEIEQVRERYSKSRKNLLAYSHLYGELYDSLEKDLDEIWSGIKQFEEETEGGNYITARKVLLEQDRNLERLQSYIDDVPK

Tests used:
crystal structure = target: the molecule itself; assay: crystal structure
[1] = target: T1, B. subtilis FtsZ with a 15-residue …; assay: cross-linking
[2] = target: T2, B. subtilis FtsZ, untagged; assay: SPR
SEC-MALS = target: the molecule itself; assay: SEC-MALS

Row | Binder | binding result (crystal structure) | stoichiometry N [1] | Kd [2] | binding result (SEC-MALS)
1 | B1 | binds | 1 EzrA:FtsZ | – | –
2 | B2 | – | – | 13.7 ± 1.5 µM | binds
